Test results from paper PMC4755285 (Journal of biomolecular screening, 2015).
Where two headings read alike, the source gives them in different places. Ends that are not written are not given here.

Columns and labels:
Assay in all cases: fluorescence polarisation
[1] = molecular target: FITC labeled HCN1 peptide (C-terminal 11 amino acids of HCN1)
[2] = molecular target: FITC labeled HCN2 peptide (C-terminal 11 amino acids of HCN2)
[3] = molecular target: FITC labeled HCN3 peptide (C-terminal 11 amino acids of HCN3)
[4] = molecular target: FITC labeled HCN4 peptide (C-terminal 11 amino acids of HCN4)
TRIP8b(241-602) [5] = molecular target: TRIP8b(241-602)
TRIP8b(241-602) [6] = molecular target: TRIP8b(241-602); remark: listed apart in the source
TRIP8b(241-602) [7] = molecular target: TRIP8b(241-602); remark: listed apart in the source
TRIP8b(241-602) [8] = molecular target: TRIP8b(241-602); remark: listed apart in the source
[9] = molecular target: T1, His tagged full length TRIP8b (1b-2) isoform
T1 chain: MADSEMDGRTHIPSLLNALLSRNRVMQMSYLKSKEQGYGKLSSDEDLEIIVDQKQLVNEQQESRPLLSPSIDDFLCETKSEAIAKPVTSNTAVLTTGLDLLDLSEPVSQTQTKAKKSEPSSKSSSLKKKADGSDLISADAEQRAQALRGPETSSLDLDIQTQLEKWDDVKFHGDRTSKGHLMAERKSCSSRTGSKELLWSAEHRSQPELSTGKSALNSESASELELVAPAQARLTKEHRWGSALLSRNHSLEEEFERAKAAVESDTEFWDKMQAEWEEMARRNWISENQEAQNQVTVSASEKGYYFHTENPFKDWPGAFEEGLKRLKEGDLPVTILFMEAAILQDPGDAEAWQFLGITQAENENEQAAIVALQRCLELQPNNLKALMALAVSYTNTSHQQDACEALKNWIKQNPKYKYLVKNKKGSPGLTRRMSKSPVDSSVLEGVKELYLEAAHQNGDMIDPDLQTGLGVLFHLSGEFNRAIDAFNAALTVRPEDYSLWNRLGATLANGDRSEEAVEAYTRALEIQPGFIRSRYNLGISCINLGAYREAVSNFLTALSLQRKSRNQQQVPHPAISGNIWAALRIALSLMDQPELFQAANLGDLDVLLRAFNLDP

## TRIP8b(241-602) (domain or fragment)
[1]
  Kd: 1230 nM
  fluorescence polarisation without competitor (mP): 224 mP
[2]
  Kd: 910 nM
[3]
  Kd: 10200 nM
[4]
  Kd: 810 nM

## DAEKPRFASNL [unlabeled HCN1 peptide]
TRIP8b(241-602) [5]
  IC50: 890 nM
TRIP8b(241-602) [6]
  IC50: 700 nM
TRIP8b(241-602) [7]
  IC50: 1770 nM
TRIP8b(241-602) [8]
  IC50: 1600 nM

## DAEKPRFASNL (also: FITC label, position not given here) [FITC labeled HCN1 peptide (C-terminal 11 amino acids of HCN1)]
TRIP8b(241-602) [6]
  Kd: 800 nM
[9]
  Kd: 1030 ± 20 nM

## DSARSRLSSNL [unlabeled HCN2 peptide]
TRIP8b(241-602) [6]
  IC50: 760 nM

## EPVRSKLPSNL [unlabeled HCN4 peptide]
TRIP8b(241-602) [6]
  IC50: 1930 nM
